The target of assay [1] is T1, murine CD22 (murine, UniProt P35329 22-708).
T1 sequence (looked up): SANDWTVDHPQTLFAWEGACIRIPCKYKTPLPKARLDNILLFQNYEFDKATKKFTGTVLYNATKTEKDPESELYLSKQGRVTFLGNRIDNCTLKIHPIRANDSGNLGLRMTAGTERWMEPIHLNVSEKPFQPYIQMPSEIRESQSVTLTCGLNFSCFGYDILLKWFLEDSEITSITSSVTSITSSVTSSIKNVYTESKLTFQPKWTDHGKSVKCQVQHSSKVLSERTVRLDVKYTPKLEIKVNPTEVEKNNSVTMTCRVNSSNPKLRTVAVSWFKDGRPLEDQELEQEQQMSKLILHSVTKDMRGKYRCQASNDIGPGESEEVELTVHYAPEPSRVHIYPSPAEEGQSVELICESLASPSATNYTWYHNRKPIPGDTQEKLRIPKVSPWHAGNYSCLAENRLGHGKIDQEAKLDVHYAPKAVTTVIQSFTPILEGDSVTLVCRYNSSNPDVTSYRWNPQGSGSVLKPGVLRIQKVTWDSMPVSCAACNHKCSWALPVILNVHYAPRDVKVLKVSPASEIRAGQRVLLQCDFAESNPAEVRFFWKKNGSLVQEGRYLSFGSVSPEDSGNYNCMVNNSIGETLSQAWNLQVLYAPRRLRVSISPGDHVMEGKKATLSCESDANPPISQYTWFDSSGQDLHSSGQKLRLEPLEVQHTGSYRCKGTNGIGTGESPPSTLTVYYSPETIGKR
Kind of assay: not described (told as the reason for the choice of monkeys).

Assay [2] addresses T2, CD22 (human, on CA46, Daudi and other human B-cell lines and on fresh patient leukemia cells) (human, UniProt P20273 20-847).
T2 construct: whole, on cells; also called CD22 antigen
T2 sequence (looked up): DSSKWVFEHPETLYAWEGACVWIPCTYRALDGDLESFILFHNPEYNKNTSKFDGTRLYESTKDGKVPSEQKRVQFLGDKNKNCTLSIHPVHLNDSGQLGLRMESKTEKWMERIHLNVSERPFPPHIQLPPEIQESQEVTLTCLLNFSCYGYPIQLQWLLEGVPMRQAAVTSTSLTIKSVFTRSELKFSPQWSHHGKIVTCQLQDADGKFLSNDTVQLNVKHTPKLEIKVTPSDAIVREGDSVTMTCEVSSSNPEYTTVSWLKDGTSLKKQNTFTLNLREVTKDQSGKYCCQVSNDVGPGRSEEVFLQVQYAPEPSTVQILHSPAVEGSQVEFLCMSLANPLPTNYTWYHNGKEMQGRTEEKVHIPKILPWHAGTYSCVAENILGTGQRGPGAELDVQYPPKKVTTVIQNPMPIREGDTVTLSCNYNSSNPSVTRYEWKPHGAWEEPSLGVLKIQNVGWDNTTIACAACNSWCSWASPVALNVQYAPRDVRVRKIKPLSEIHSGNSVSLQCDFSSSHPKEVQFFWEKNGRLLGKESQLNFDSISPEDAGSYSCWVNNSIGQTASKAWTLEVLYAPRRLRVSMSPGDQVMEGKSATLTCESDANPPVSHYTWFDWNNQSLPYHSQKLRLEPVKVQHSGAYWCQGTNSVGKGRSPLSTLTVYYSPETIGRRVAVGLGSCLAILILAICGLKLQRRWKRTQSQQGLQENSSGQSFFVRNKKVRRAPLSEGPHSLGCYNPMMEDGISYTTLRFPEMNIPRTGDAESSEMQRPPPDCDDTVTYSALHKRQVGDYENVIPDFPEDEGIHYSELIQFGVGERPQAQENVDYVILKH
Kind of assay: competition of unlabelled IgG against 125I-labelled RFB4 IgG on CA46 cells, 4 C, gamma counting.

The target in assay [3] is T2, CD22 (human, on CA46, Daudi and other …). Briefly: competition of unlabelled IgG against 125I-labelled RFB4 IgG on Daudi cells, 4 C, gamma counting.

B1: RFB4 IgG (antibody, V domains shown)
VH: EVQLVESGGGLVKPGGSLKLSCAASGFAFSIYDMSWVRQTPEKRLEWVAYISSGGGTTYYPDTVKGRFTISRDNAKNTLYLQMSSLKSEDTAMYYCARHSGYGSSYGVLFAYWGQGTLVTVSA
VL: DIQMTQTTSSLSASLGDRVTISCRASQDISNYLNWYQQKPDGTVKLLIYYTSILHSGVPSRFSGSGSGTDYSLTISNLEQEDFATYFCQQGNTLPWTFGGGTKLEIK
notes: also called RFB4 mAb; native RFB4 IgG
As to B1, in assay [1], the binding result is listed as “no binding”. In addition, the half-maximal inhibitory concentration (IC50) in assay [2] turned out to be 4.5 nM; in assay [3], 10 nM.

For the origin of these results see US7541034 (US Dept. of Health and Human Services, dated 2009).
